From US20120192301

Assays:
[1] = system: SBS 26334 ZFN (engineered); assay: cell_activity; settings: Cel-I indels, pair 26323/26334, K562, no donor
[2] = system: SBS 26323 ZFN (engineered); assay: cell_activity; settings: Cel-I indels, pair 26323/26334, K562, no donor

Sequence | activity [1] | activity [2]
AACAGGTAAGCTCCATTGTGCTTATATC (double strand) [SNCA site 36 (25358/26334)] | < 45% | –
CACACCATGCACCACTCCCTCCTTGGTT (double strand) [SNCA site 37 (26323/26327/26331)] | – | < 45%
